Measurements reported in patent US12709641B2, “Tau binding compounds” (VOYAGER THERAPEUTICS, INC., dated 2026).
Residue numbers refer to the chain shown, from its start.

B1: V1003 (antibody, V domains shown)
VH: EVKLVESGGGLVKPGGSLKLSCAASGFTFSSYAMSWVRQIPEKRLEWVAAINSNGGSTYYPDTVKDRFTISRDNAKNTLYLQMSSLRSEDTALYYCVRQGWDAWFAYWGQGTLVAVSA
VL: DIKMTQSPSSMYASLGERVTITCKASQDINSYLSWFQQKPGKSPKTLIYRANRLVDGVPSRFSGSGSGQDYSLTISSLEYEDMGIYYCLQYDEFPLTFGAGTKLELK
B2: V2001 (antibody, V domains shown)
VH: DVQLVESGGGLVQPGGSRKLSCAASGFIFSSFGMHWVRQAPEKGLEWVAYISSGSATIYYADTVKGRFTISRDNPKNTLFLQMTSLRSEDTAMYYCARKRGSGNYVSAMDFWGQGTSVTVSS
VL: DVLMTQTPLSLPVSLGDQASISCRSGQSIVHSNGNTYLEWYLQKPGQSPKLLIYKVSNRFSGVPDRFSGSGSGTDFTLKISRVEAEDLGVYYCFQGSHVPWTFGGGTKLEIK
B3: V1005 (antibody, V domains shown)
VH: QVTLKESGPGKLQPSQTLSLTCSFSGFSLSTSGMGVSWIRQPSGKGLEWLAHIYWDDDKRYNPSLKSRLTISKDTSRNQVFLKITSVDTADTATYYCARGWLRRKDYSAMDYWGQGTSVTVSS
VL: NIVMTQSPKSMSMSVGERVTLSCKASEHVGPYVSWYQHKAEQSPKLLIYGASNRYTGVPDRFTGSGSATDFTLIISSVQAEDLADYHCGQTYSYPLTFGAGTKLELK
B4: V0043 (antibody, V domains shown)
VH: DVQLQESGPGLVKPSQSLSLTCSVSGYSITTNYFWNWIRLFPGNKLEWMGYISYDGSNVYNPSLKNRISITRDTSKNQFFLKLNSLTTEDTATYYCARGPPSAYWGQGTLVTVSA
VL: SIVMTQSPKFLPVSAGDRVTMTCKASQSVGNNVAWYQQKPGQSPKLLIYYASNRYTGVPDRFTGSGSGTDFTLTISSVQVEDLVVYFCQQHYSSPLTFGAGTKLELK
B5: V0045 (antibody, V domains shown)
VH: DVQLQESGPGLVKPSQSLSLTCSVTGYSITTNYYWNWIRQFPGNKLEWMGYISYDGSSNYNPSLKNRISITRDTSKNQFFLNLNSVTTEDTATYYCARDLLGYWGQGTTLTVSS
VL: B4 VL with S7T, V29L, L73F, V84A, L96R, A100G, L106I, K107R
B6: V0007 (antibody, V domains shown)
VH: EVQLVESGGDLVKPGGSLKLSCAASGFTFSSYGLSWVRQTPDKRLEWVATISSGGDYTYYPDSVKGRFTISRDNAKNILYLHMSSLKSEDTAMYYCAREDGYYVGTMDYWGQGTSVTVSS
VL: DIQMTQSPSSLSASLGERVSLTCRASQDIGSSLNWLQQEPDGTFKRLIYATSSLDSGVPKRFSGSRSGSDYSLTISSLESEDFVDYYCLQYDSLPLTFGAGTKLELK
B7: V0006 (antibody, V domains shown)
VH: QVQLKESGPGLVAPSQSLSITCTVSGFSLTSYAISWVRQPPGKSLEWLGVIWTGGGSKYNSALKSRLSISKDNSKSQVFLKMNSLQTDDTARYYCVRNYDYYRYEGFDYWGQGTLVTVSA
VL: DIKMTQSPSSLSASLGEGVSLTCRASQDIGSSLHWLQQKPDGTIKRLIYGTSTLDSDVPKRFSGSRSGSDYSLTISSLESEDFVDYFCLQYATSPPTFGGGTKLEIK
B8: V0042 (antibody, V domains shown)
VH: DVQLQESGPGLVKPSQSLSLTCSVTGYSITTNYYWNWIRQFPGNKLEWMGYITYDGIKTYNPSLNNRISITRDTSKNQFFLKLNSVTTEDTATYYCARGPGLDYWGQGTTLTVSS
VL: B4 VL with S7T, G64A, L73F, V84A, L96Y, A100S, K103N, L106I
B9: V1004 (antibody, V domains shown)
VH: B1 VH with K3Q, I40T, T58I, S84I, V97A, W101G, D102S, A103S, A106V, A115T
VL: B1 VL with T5I, S77R, M83V, I85L, L89Q
B10: V0008 (antibody, V domains shown)
VH: QVQLKESGPGLVAPSQSLSITCTVSGFSLTTYAISWVRQPPGKGLEWLGVIWTGGGTDFNSALKSRLSISKDNSKSQVFLKMISLQTNDTARYYCARKGGSYYSTTYVGLYAMDYWGQGTSVTVSS
VL: DIQMTQTTSSLSASLGDRVTISCRASQDISNYLNWYQQKPAGTVKLLIYYTSRLHSGVPSRFSGSGSGTDYSLTISNLEQEDVATYFCQQGNTLPWTFGGGSKLEIK
B11: V0003 (antibody, V domains shown)
VH: QVQLQQPGTELVKPGASVKLSCKASGYTFTKNWLHWVKQRPGQGLEWIGYINPSNGATNYNERFKSKASLTVDKSSTTAYMQLSSLTSEDSAVYYCARSGGWLLPYYAMDYWGHGTSVTVSS
VL: EIVLIQSPALMAASPGEKVTITCSVSSSISSSNLHWYQQQSGTSPKPWILATSNLASGVPVRFSGSGSGTSYSLTISSMEAEDAATYYCQQWSSYPFTFGTGTKLEIK
B12: V0036 (antibody, V domains shown)
VH: QVTLKESGPGILQPSQTLNLTCSFSGFSLSTSGMGVSWIRQPSGKGLEWLAHIYWDDDKRYNPSLKSRLTISKDTSRNQVFLKITSVDTADTATYYCVRRSRRGNYDYWGQGTTLTVSS
VL: not shown
B13: V0025 (antibody, V domains shown)
VH: QVQLQQPGTELVKPGASVKLSCKASGFTFTRFWMHWVKQRPGQGLEWIGNINPNNGETNYNEKFKIKAALTVDKSSTTAYMQLSSLTSEDSAVYSCARGTGTGAMDYWGQGTSVTVSS
VL: DVVMTQTPLSLPVSLGDQASISCRSSQSLVHSTGNTYLYWYLQKPGQSPKLLIYRVSTRFSGVPDRFSGSGSGTDFTLKINRVEAEDLGVYFCFQGTHVPRTFGGGTKLEIK
B14: V1001 (antibody, V domains shown)
VH: EVQLVESGGGLVKPGGSLKLSCAASGFTFSSYAMSWVRQTPEKRLEWVAAINSNGGRTYYPDTVKDRFTISRDNAKNTLYLQMSSLRSEDTALYYCARQGHSNYYEAWFAYWGQGTLVTVSA
VL: B1 VL with V19L, T20S, S34N, Y80D, K107R
B15: V0049 (antibody, V domains shown)
VH: QVTLKESGPGILQSSQTLSLTCSFSGFSLSTSGMGVSWIRQPSGKGLEWLAHIYWDDDKRYNPSLKSRLKISKDTSRNQVFLKITSVDTADTATYYCARRGYYSNGNYFDYWGQGTTLTVSS
VL: QIVLTQSPTTMAASPGEKITITCSASSSISSTYLHWYQQKPGFSPKLLIYRTSNLASGVPARFSGSGSGTSYSLTIGTMEAEDVATYYCQQGSSIPRYTFGGGTKLEIK
B16: V0001 (antibody, V domains shown)
VH: EVQLVESGGGLVQPKGSLKLSCAASGFTFNTYAMYWVRQAPGKGLEWVARIRSKSSNYATYYADSVKDRFTISRDDSQSKLYLQMNNLKTEDTAMYYCVREGLWYYFDYWGQGTTLTVSS
VL: DIQMTQITSSLSASLGDRVTISCRASQDISNYLNWYQQKPDGTVKLLIYSTSRLHSGVPSRFSGSGSGTDYSLTISNLEPEDIATYYCQQYSKLLPTFGSGTKLEIK

molecular target: enriched paired helical filament tau protein (ePHF) (human, phosphorylated residues of pathological tau, sites not stated); assay: direct ELISA
Procedure: Variable domain nucleic acid sequences from antibodies obtained from immunizations described above were used to prepare recombinant mouse IgG antibodies. These candidate antibodies were analyzed for binding to ePHF and specificity for ePHF over wild type tau by direct ELISA.
For direct ePHF and wildtype tau ELISA, plates were first coated with ePHF or wild type tau. Antigen solutions were prepared in PBS and 50 μL were pipetted into each well. Plates were covered and incubated for one hour at 37° C. or overnight at 4° C. Plates were then washed and blocked by addition of 150 μl of blocking buffer to each well and incubated one hour at room temperature. Plates were then washed before addition of serially diluted candidate antibody samples prepared in blocking buffer. Detection of candidate antibody binding was carried out by washing plates and adding a solution of enzyme-labeled secondary antibody in blocking buffer to each well. Secondary antibody binding was detected by addition of substrate and spectrophotometric analysis of resulting reaction product.

Q: How did the EC50 turn out when B1 was run?
A: Its EC50 is 0.234 nM.

Q: With B2 as the binder, how does the EC50 read?
A: The EC50 was 0.237 nM.

Q: With B3 as the binder, how does the EC50 read?
A: The EC50 was 0.48 nM.

Q: B4 was tested. Which EC50 did it give?
A: The EC50 was 0.581 nM.

Q: B5 was tested. Which EC50 did it give?
A: The EC50 was 0.618 nM.

Q: Which EC50 does the source give for B6 here?
A: The EC50 was 0.74 nM.

Q: Which EC50 does the source give for B7 here?
A: The EC50 was 0.861 nM.

Q: For B8, which EC50 is on record?
A: Its EC50 is 0.869 nM.

Q: With B9 as the binder, how does the EC50 read?
A: The EC50 was 0.069 nM.

Q: How did the EC50 turn out when B10 was run?
A: The EC50 was 1.54 nM.

Q: For B11, which EC50 is on record?
A: Its EC50 is 2.83 nM.

Q: B12 was tested. Which EC50 did it give?
A: Its EC50 is 6.43 nM.

Q: For B13, which EC50 is on record?
A: Its EC50 is 0.098 nM.

Q: B14 was tested. Which EC50 did it give?
A: Its EC50 is 0.401 nM.

Q: Which EC50 does the source give for B15 here?
A: The EC50 was 0.053 nM.

Q: With B16 as the binder, how does the EC50 read?
A: The EC50 was 0.126 nM.
